Source: US20150359911

Molecular target: Integrin alpha-v beta-3 (UniProt P06756+P05106)
Assay: filter
Conditions: BzdU replaces dT in the extended strand, HEPES, NaCl, KCl, MgCl2 buffer, 37 C

Sequence of Integrin alpha-v beta-3 (P06756 31-992, chain 1 of 2): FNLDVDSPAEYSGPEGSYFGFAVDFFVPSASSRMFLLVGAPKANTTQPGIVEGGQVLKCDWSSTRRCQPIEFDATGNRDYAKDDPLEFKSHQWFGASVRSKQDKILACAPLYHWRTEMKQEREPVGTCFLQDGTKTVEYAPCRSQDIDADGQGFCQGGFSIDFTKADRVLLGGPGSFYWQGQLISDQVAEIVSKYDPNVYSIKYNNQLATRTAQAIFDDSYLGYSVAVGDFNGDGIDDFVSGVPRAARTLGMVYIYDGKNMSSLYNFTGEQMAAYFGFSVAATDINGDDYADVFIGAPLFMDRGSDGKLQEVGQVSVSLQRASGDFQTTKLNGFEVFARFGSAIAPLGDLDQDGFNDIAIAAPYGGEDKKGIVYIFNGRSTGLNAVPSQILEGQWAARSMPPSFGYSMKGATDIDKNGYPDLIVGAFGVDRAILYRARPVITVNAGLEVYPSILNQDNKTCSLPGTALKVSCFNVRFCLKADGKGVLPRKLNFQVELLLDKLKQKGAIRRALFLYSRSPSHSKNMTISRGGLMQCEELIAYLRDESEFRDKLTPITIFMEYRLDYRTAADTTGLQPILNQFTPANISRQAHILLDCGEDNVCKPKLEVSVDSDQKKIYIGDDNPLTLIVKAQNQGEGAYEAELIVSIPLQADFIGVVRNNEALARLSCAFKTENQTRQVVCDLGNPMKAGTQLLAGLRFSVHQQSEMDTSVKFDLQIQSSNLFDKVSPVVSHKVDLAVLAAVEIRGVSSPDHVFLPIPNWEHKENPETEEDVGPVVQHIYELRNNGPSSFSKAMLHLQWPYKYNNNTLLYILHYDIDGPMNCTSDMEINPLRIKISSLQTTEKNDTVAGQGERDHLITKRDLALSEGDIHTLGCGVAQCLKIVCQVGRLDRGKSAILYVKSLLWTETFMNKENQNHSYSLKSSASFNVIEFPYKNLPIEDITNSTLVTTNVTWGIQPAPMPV
Sequence of Integrin alpha-v beta-3 (P05106 27-718, chain 2 of 2): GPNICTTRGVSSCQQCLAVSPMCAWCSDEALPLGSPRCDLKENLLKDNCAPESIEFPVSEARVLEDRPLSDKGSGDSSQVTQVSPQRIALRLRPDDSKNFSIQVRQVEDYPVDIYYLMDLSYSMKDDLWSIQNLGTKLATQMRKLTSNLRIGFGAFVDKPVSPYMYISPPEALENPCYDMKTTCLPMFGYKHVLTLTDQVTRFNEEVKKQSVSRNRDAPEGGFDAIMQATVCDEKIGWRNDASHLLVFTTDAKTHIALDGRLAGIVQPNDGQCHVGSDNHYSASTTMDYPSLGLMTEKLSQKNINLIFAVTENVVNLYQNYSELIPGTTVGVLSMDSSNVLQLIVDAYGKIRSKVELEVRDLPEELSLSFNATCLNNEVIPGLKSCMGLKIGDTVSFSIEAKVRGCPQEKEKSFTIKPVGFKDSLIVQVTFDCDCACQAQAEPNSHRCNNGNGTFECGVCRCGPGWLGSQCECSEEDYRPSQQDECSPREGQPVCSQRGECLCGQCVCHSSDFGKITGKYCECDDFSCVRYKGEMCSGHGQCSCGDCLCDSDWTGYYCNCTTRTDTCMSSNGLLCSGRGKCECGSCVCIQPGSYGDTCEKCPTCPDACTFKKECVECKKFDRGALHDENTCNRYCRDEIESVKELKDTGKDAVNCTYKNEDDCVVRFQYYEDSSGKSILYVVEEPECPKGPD

## TCAGCCGCCAGCCAGTTCTGACCAGAGCACCACAGAG [Starting benzyl-dU random library]
N = random N40 [n positions 19 = modified dU], Bmax 3.23E-11, essentially no binding
  Kd: 6.5 µM

## TCAGCCGCCAGCCAGTTCTGACCAGAGCACCACAGAG [Round 8 SELEX pool]
N = selected N40 region [n positions 19 = modified dU], Bmax 0.45
  Kd: 0.0433 µM
